Square brackets hold non-standard residues; d marks the D form. Ends that are not written are not given here. Aib = CC(C)(N)C(=O)O
Tests used:
[1] = target: T1, ClpC (M. smegmatis AAA+ unfoldase, Clp-ATPase) (M. smegmatis); assay: cell-based or functional assay
ClpC (S437P) [2] = target: ClpC (S437P) (M. smegmatis); assay: cell-based or functional assay
[3] = target: T1, ClpC (M. smegmatis AAA+ unfoldase, …); assay: SPR; Biacore 8K; ClpC or ClpC (S437P) amine-coupled on a CM5 chip at pH 4.0 (around 6500 RU); COG1410 flowed at 125 to 2000 nM (2-fold dilutions); PBS pH 7.4, 0.05% tween-20, 25 °C, 30 μL/min; 1:1 Langmuir binding model; conditions: both partners purified
ClpC (S437P) [4] = target: T2, ClpC (S437P) (M. smegmatis); assay: as above; conditions: both partners purified
T2 construct: also called ClpC variant; ClpC (S437P) variant; source: E. coli BL21 (DE3), pET28a, purified (IMAC on Ni Sepharose 6 FF, desalting)

For AS[Aib]LRKL[Aib]KRLL (not fully specified (N-terminus, C-terminus)) [COG1410], the “ATPase activity of purified ClpC (64 nM) with COG1410, dose series; at 10 μM COG1410 against ClpC alone” value [1] was ~3 fold, the “proteolytic activity on FITC-casein in the ClpCP1P2 system with 10 μM COG1410” value [1] was 4 fold and the “ATPase activity of purified ClpC (S437P) (64 nM) with 10 μM COG1410 against ClpC alone” value (ClpC (S437P) [2]) was ~7.4 fold. For the same binder, the “proteolytic activity on FITC-casein in the S437PP1P2 system with COG1410 against the control with ClpC alone” value (ClpC (S437P) [2]) was ~7 fold, the Kd [3] was 2.03 µM and the koff [3] was 0.0117 s⁻¹. For the same binder, the kon [3] was 5780 M⁻¹ s⁻¹, the Kd (ClpC (S437P) [4]) was 1.31 µM and the koff (ClpC (S437P) [4]) was 0.0119 s⁻¹. For the same binder, the kon (ClpC (S437P) [4]) was 9900 M⁻¹ s⁻¹.
